Patent publication US20050089937A1 (H LUNDBECK A S, published 2005)
Non-standard residues stand in square brackets, D forms with d. No end group written: not given here. *: point of attachment. NMeF = CN[C@@H](Cc1ccccc1)C(=O)O; 125I = [125I]*

Columns and labels:
[1] = target: rat spinal cord membrane receptor; test: competition with [125I]D-Tyr-NPFF, rat spinal cord membranes
[2] = target: T1, rat neuropeptide FF receptor (NPFF1) (rat, UniProt Q9EP86 1-432); test: competition with [125I]D-Tyr-NPFF, membranes of COS-7 cells with rat NPFF1
Excerpt: (§1) Cos-7 cells transiently expressing the gene encoding the novel rat NPFF1 receptor were used for pharmacological evaluation.

[3] = target: rat neuropeptide FF receptor (NPFF1) (rat) (UniProt Q9EP86); test: as above
[4] = target: T2, rat neuropeptide FF receptor (NPFF1) (rat), Q9EP86; test: as above
T2 chain: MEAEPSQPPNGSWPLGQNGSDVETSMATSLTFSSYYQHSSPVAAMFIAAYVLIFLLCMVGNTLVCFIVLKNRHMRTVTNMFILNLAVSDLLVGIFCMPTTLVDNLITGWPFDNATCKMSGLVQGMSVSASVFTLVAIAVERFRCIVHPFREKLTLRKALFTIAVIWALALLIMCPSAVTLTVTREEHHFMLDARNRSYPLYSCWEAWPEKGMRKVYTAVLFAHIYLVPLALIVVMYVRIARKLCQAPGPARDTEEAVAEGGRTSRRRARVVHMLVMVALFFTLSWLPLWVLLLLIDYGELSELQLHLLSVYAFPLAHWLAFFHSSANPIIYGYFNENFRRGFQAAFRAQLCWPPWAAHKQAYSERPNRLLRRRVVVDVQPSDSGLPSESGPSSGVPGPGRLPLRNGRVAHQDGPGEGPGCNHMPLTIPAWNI

[5] = target: T3, human neuropeptide FF receptor (NPFF1) (human, UniProt Q9GZQ6 1-430); test: competition with [125I]D-Tyr-NPFF, HEK-293 cells with the cloned receptor
T3 construct: also called human NPFF1; hNPFF1
Excerpt: (§2) Additional pharmacological evaluation was done using 293 human embryonic kidney cells (HEK-293 cells) transiently expressing the genes encoding the human NPFF1, NPFF2, and rat NPFF1 receptors, as well as Cos-7 cells expressing the rat NPFF2 receptors.

[6] = target: T4, human NPFF2b (hNPFF2) receptor (human, UniProt Q9Y5X5 103-522); test: as above
T4 construct: also called NPFF-like; hNPFF-like
Excerpt: as §2

[7] = target: T1, rat neuropeptide FF receptor (NPFF1); test: as above
Excerpt: as §2

[8] = target: T5, rat neuropeptide FF receptor (NPFF2) (rat, UniProt Q9EQD2 1-417); test: competition with [125I]D-Tyr-NPFF, cloned receptor (head: HEK-293; text: Cos-7)
T5 construct: Full-length cloned receptor; Also the native receptor in rat brain sections (autoradiography); also called rat NPFF2
Excerpt: as §2

[9] = target: T3, human neuropeptide FF receptor (NPFF1); test: cell-based or functional assay
[10] = target: T4, human NPFF2b (hNPFF2) receptor; test: cell-based or functional assay
[11] = target: T1, rat neuropeptide FF receptor (NPFF1); test: cell-based or functional assay
[12] = target: T4, human NPFF2b (hNPFF2) receptor; test: competition with [125I]D-Tyr-NPFF; human NPFF2 against human NPFF1
Excerpt: as §2

[13] = target: T5, rat neuropeptide FF receptor (NPFF2); test: competition with [125I]D-Tyr-NPFF; rat NPFF2 against rat NPFF1
Excerpt: as §2

[14] = target: T1, rat neuropeptide FF receptor (NPFF1); test: radioligand saturation binding, membranes of Cos-7 cells transiently expressing rat NPFF1
Excerpt: as §1

[15] = target: T3, human neuropeptide FF receptor (NPFF1); test: radioligand saturation binding, transiently transfected HEK-293 cells
[16] = target: T4, human NPFF2b (hNPFF2) receptor; test: as above
[17] = target: T1, rat neuropeptide FF receptor (NPFF1); test: as above
[18] = target: T5, rat neuropeptide FF receptor (NPFF2); test: radioligand binding to cloned rat NPFF2, as told in the discussion
[19] = target: T5, rat neuropeptide FF receptor (NPFF2); test: radioligand saturation binding, Cos-7 cells expressing rat NPFF2
Excerpt: as §2

[20] = target: T1, rat neuropeptide FF receptor (NPFF1); test: cell-based or functional assay; remark: listed apart in the source
[21] = target: T5, rat neuropeptide FF receptor (NPFF2); test: competition binding, HEK-293 cells with the cloned receptor

T4 sequence (Q9Y5X5 103-522): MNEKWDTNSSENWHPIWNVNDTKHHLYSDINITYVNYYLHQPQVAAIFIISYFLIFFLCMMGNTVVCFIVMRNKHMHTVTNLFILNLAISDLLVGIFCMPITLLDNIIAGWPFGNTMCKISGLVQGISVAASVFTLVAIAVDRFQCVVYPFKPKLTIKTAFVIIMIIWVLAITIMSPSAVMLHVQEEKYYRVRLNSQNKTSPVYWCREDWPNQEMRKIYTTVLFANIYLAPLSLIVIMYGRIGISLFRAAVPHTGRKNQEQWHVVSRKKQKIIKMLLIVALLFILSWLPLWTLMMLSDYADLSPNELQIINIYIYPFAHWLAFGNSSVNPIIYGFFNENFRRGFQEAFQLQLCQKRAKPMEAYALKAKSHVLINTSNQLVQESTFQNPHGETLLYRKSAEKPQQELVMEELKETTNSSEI
T5 sequence (Q9EQD2 whole entry): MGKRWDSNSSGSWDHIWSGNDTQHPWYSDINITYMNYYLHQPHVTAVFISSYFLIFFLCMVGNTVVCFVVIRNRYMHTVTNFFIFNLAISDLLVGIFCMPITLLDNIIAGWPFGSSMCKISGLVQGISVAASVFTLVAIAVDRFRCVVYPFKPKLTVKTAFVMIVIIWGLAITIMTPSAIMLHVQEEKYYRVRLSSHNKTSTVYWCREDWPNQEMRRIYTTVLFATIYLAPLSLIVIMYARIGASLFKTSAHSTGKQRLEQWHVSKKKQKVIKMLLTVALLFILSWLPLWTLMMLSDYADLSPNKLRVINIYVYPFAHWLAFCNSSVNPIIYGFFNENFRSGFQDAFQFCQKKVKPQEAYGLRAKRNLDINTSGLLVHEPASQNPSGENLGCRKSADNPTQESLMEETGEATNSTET
T3 sequence (Q9GZQ6 whole entry): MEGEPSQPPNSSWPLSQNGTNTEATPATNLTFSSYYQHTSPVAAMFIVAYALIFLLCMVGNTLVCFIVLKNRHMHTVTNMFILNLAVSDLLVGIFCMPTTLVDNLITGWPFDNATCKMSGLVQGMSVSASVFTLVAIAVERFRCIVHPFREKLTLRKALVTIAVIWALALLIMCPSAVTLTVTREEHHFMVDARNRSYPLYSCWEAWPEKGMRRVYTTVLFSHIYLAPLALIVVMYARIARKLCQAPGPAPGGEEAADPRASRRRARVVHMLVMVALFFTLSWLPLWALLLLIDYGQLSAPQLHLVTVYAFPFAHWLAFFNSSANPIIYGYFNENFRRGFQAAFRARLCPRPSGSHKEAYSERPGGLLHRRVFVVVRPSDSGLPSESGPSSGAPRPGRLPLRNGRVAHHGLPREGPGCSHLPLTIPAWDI

“Dynorphin A1-13 (from UniProt P01213 207-219) (peptide)” was tested. Which pKi [1] did it give?
The pKi was 5.7.

How did the pKi [2] turn out when CGRP (peptide) was run?
The pKi was 5.

What about the pKi [1] of the same molecule?
Its pKi is 5.

Neuropeptide F was tested. Which pKi [2] did it give?
Its pKi is 6.11.

What about the pKi [1] of the same molecule?
Its pKi is 8.1.

With Neuropeptide FF (NPFF) as the molecule, how does the pKi [1] read?
The pKi was 9.05.

(3D)Y8Fa (peptide) was tested. Which pKi [3] did it give?
Its pKi is 8.62.

What about the pKi [1] of the same molecule?
Its pKi is 9.12.

For (2DME)Y8Fa (peptide), which pKi [3] is on record?
Its pKi is 9.2.

What about the pKi [1] of the same molecule?
Its pKi is 9.57.

With desamino-nor-Y8Ra (peptide) as the molecule, how does the pKi [2] read?
Its pKi is 7.27.

And the pKi [1]?
The pKi was 7.51.

How did the pKi [3] turn out when (2D)Y8Fa (peptide) was run?
The pKi was 8.33.

And the pKi [1]?
The pKi was 9.21.

For YPLG (modifications not checked) [Tyr-MIF-1], which pKi [4] is on record?
Its pKi is 5.

And the pKi [1]?
Its pKi is 5.

B1: Met5-Arg6-Phe7-Enk-NH2 (peptide)
peptide: YGGFMRF-NH2
notes: also called Met-Enk-NH2; Met^5, Arg^6, Phe^7-NH2 enkephalinamide
B1 was tested. Which pKi [2] did it give?
The pKi was 7.35.

What about the pKi [1] of the same molecule?
Its pKi is 8.4.

APLEPVYPGDNATPEQMAQYAADLRRYINMLTRPRY (peptide, UniProt P01298 30-65, looked up) [hPP] was tested. Which pKi [2] did it give?
Its pKi is 5.

And the pKi [1]?
Its pKi is 5.

Which pKi [2] does the source give for DYMGWMDF (peptide, UniProt P06307 96-103, looked up, species assumed, ends and bridges not checked) [CCK8] here?
The pKi was 5.

And the pKi [1]?
The pKi was 5.

B2: AF-2 (peptide)
peptide: H-KHQYLRF-NH2
notes: Printed as H-Lys-His-Gln-Tyr-Leu-Arg-Phe-NH2
What does the source list for B2?
pKi [2]: 7.02; pKi [1]: 7.96

With FMRF (D-Met in place of L-Met, C-terminal amide, also called the D-Met analog) [D-Met-FMRF amide] as the molecule, how does the pKi [5] read?
Its pKi is 6.6.

What about the pKi [6] of the same molecule?
The pKi was 6.4.

And the pKi [7]?
Its pKi is 6.2.

What about the pKi [8] of the same molecule?
The pKi was 6.2.

For YGGFMRF-OH [Met5-Arg6-Phe7-Enk-OH], which pKi [2] is on record?
The pKi was 5.

What about the pKi [1] of the same molecule?
The pKi was 5.

B3: (D-Tyr^1-(NMe)Phe^3)NPFF (peptide)
peptide: [dY]L[NMeF]QPQRF-NH2
modifications: N-terminus assumed
SMILES: CC(C)C[C@H](NC(=O)[C@H](N)Cc1ccc(O)cc1)C(=O)N(C)[C@@H](Cc1ccccc1)C(=O)N[C@@H](CCC(N)=O)C(=O)N1CCC[C@H]1C(=O)N[C@@H](CCC(N)=O)C(=O)N[C@@H](CCCNC(=N)N)C(=O)N[C@@H](Cc1ccccc1)C(N)=O
notes: also called D-Tyr-NPFF; (1DMe)Y8Fa
B3 was tested. Which pKi [5] did it give?
Its pKi is 8.1.

What about the pKi [6] of the same molecule?
Its pKi is 8.5.

And the pKi [7]?
The pKi was 8.8.

What about the pKi [2] of the same molecule?
The pKi was 8.55.

What about the pKi [8] of the same molecule?
Its pKi is 8.7.

And the pKi [1]?
The pKi was 9.72.

What does the source list for FMRF-NH2 [FMRF amide]?
pKi [5]: 9.1; pKi [6]: 8.4; pKi [7]: 8.7; pKi [2]: 8.48; pKi [8]: 8; pKi [1]: 8.49

Which results are given for FFRF (ends and bridges not checked)?
pKi [2]: 8; pKi [1]: 8.98

Which pKi [2] does the source give for FTRF (ends and bridges not checked) here?
The pKi was 7.87.

What about the pKi [1] of the same molecule?
The pKi was 8.16.

B4: PQRF-amide (peptide)
peptide: PQRF-NH2
notes: C-terminal tetrapeptide of NPFF; also called PGRF-amide [sic]
Which “% of NPPF Response, intracellular calcium mobilization” value [9] does the source give for B4 here?
The value was 93 % of NPPF Response.

What about the “pEC50, intracellular calcium mobilization” value [9] of the same molecule?
Its value is 6.7.

What about the “% of NPPF Response, intracellular calcium mobilization” value [10] of the same molecule?
Its value is 94 % of NPPF Response.

And the “pEC50, intracellular calcium mobilization” value [10]?
The value was 7.

And the pKi [5]?
Its pKi is 7.4.

What about the pKi [6] of the same molecule?
Its pKi is 7.6.

And the pKi [7]?
Its pKi is 7.6.

What about the pKi [2] of the same molecule?
The pKi was 8.18.

And the pKi [8]?
Its pKi is 7.6.

Which results are given for PMRF-NH2 [PMRFa]?
pKi [2]: 8.55; pKi [1]: 9.37

What does the source list for AGEGLSSPFWSLAAPQRF-NH2 (also called NPAF) [rat A-18-F-amide]?
pKi [5]: 7.2; pKi [6]: 8.9; pKi [7]: 7.5; pKi [2]: 7.5; EC50, extracellular acidification rate (microphysiometry), CHO cells with NPFF1 alone [11]: 150 nM; pKi [8]: 8.2; pKi [1]: 9

B5: [Y^9]A18Fa (peptide)
peptide: AGEGLSSPYWSLAAPQRF-NH2
notes: also called [Y^9]A18Famide; [tyr^9]A-18-F-amide
B5 was tested. Which pKi [2] did it give?
Its pKi is 7.56.

What about the pKi [1] of the same molecule?
The pKi was 8.5.

B6: AF-1 (peptide)
peptide: H-KNQFIRF-NH2
notes: Printed as H2N-Lys-Asn-Gln-Phe-Ile-Arg-Phe-NH2; also called FMRF-like peptide
Which pKi [2] does the source give for B6 here?
Its pKi is 6.63.

What about the pKi [1] of the same molecule?
The pKi was 7.56.

With YLFQPQRF-NH2 (also called Y8Famide; Y-8-F-amide) [Y8Fa] as the molecule, how does the pKi [2] read?
Its pKi is 8.38.

And the pKi [1]?
Its pKi is 9.19.

How did the pKi [2] turn out when GWTLNSAGYLLGPHAVGNHRSFSDKNGLTS (peptide, UniProt P22466 33-62, looked up, species assumed, Galanin) [galanin] was run?
Its pKi is 5.

And the pKi [1]?
The pKi was 5.

Which pKi [2] does the source give for PDVDHVFLRF-NH2 (also called SchistFLRF) [Schisto(FLRFNH2)] here?
Its pKi is 5.96.

And the pKi [1]?
The pKi was 6.39.

Which “% of NPPF Response, intracellular calcium mobilization” value [9] does the source give for APSEPHHPGDQATQDQLAQYYSDLYQYITFVTRPRF (not fully specified; ends and bridges not checked, also called fPP) [Frog pancreatic polypeptide (frog PP) (Rana Temporaria)] here?
Its value is 0 % of NPPF Response.

And the “pEC50, intracellular calcium mobilization” value [9]?
Its value is less than 5.

And the “% of NPPF Response, intracellular calcium mobilization” value [10]?
Its value is 78 % of NPPF Response.

And the “pEC50, intracellular calcium mobilization” value [10]?
Its value is 6.7.

And the pKi [5]?
Its pKi is 5.9.

What about the pKi [6] of the same molecule?
Its pKi is 7.4.

And the pKi [7]?
Its pKi is 5.4.

What about the “fold greater affinity than for the NPFF1 receptor” value [12] of the same molecule?
The value was 77 fold.

What about the “fold greater affinity than for the NPFF1 receptor” value [13] of the same molecule?
Its value is 31 fold.

And the pKi [2]?
Its pKi is 5.5.

And the pKi [8]?
The pKi was 7.3.

And the pKi [1]?
The pKi was 9.12.

Which Kd [14] does the source give for [dY](125I)L[NMeF]QPQRF-NH2 [[^125I][D-Tyr^1-(NMe)Phe^3]NPFF] here?
The Kd was 0.335 nM.

And the Kd [15]?
The Kd was 0.46 nM.

What about the Kd [16] of the same molecule?
The Kd was 0.17 nM.

What about the Kd [17] of the same molecule?
Its Kd is 0.65 nM.

What about the Kd [18] of the same molecule?
The Kd was 0.22 nM.

What about the Kd [19] of the same molecule?
Its Kd is 0.17 nM.

B7: Neuropeptide FF (NPFF) (peptide)
peptide: FLFQPQRF-NH2
notes: bought from Bachem; also called F-8-Fa; F8Famide
How did the “EC50, functional activity in COS-7 cells” value [20] turn out when B7 was run?
Its value is 9.3 nM.

What about the “EC50, extracellular acidification rate (microphysiometry), CHO cells with NPFF1 alone” value [11] of the same molecule?
Its value is 19.3 nM.

What about the “EC50, extracellular acidification rate (microphysiometry), CHO cells with NPFF1 and the Gz/Gq chimera” value [11] of the same molecule?
The value was 27.7 nM.

And the “EC50, total inositol phosphate release, Cos-7 cells with NPFF1” value [11]?
Its value is 23 nM.

What about the pKi [21] of the same molecule?
The pKi was 8.2.

Which pKi [2] does the source give for MPRVRSLFQEQEEPEPGMEEAGEMEQKQLQ (peptide, UniProt Q13519 98-127, looked up, species assumed, Nocistatin) [nocistatin] here?
Its pKi is 5.

What about the pKi [1] of the same molecule?
The pKi was 5.
